Measurements taken from patent US20190135868.

Columns and labels:
[1] = tested on: T1, RTD84 (stapled sDBD) (synthetic); assay: EMSA; conditions: text p911 gives EC50 ~50-100 nM
T1 sequence 1: KRXHHNXLERKRRDHIKDS
T1 sequence 2: KRRTHNXLERXRRNELKRS

RTD913 SMCC (synthetic) = tested on: T2, RTD913 SMCC (synthetic); assay: EMSA; conditions: stable complex formation, somewhat unstable binding; text p911 gives ~50-100 nM
T2 sequence 1: KRAHHNALERXRRDXIKDS
T2 sequence 2: KRRTHNXLERXRRNELKRS

“CACGTG (double strand) [E-box probe (E1)]” showed a Kd [1] of 50 nM and an EC50 (RTD913 SMCC (synthetic)) of 20 nM.
